# Measurements: the supplement of paper PMC10567573
# B1: TRAF3IP2 (parent)
# chain: KEHVPTWLQNTHVYSWPKNKKNIL
# Variants of: B1
# Assay: protein stability index of a GFP-peptide fusion (GPS, HEK-293T) (PSI 1-6); higher = more stable
# Conditions: c terminus: a fixed tail appended
# 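Further: lentivirally expressed fusions sorted by FACS into six bins by GFP to DsRed ratio, PSI derived from sequencing read proportions per bin multiplied by bin number.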
row,Variant,protein stability index
1,KEHVPTWLQNVHVYSWPKNKKNIL [T11V],2.52
2,KEHVPTWLQNRHVYSWPKNKKNIL [T11R],2.54
3,KEHVPTWLQNWHVYSWPKNKKNIL [T11W],2.3
4,KEHVPTWLQNSHVYSWPKNKKNIL [T11S],2.88
5,KEHVPTWLQNKHVYSWPKNKKNIL [T11K],2.57
6,KEHVPTWLQNDHVYSWPKNKKNIL [T11D],2.52
7,KEHVPTWLQNGHVYSWPKNKKNIL [T11G],2.64
8,KEHVPTWLQNHHVYSWPKNKKNIL [T11H],2.38
9,KEHVPTWLQNPHVYSWPKNKKNIL [T11P],2.67
10,KEHVPTWLQNNHVYSWPKNKKNIL [T11N],3.08
11,KEHVPTWLQNQHVYSWPKNKKNIL [T11Q],3.04
12,KEHVPTWLQNEHVYSWPKNKKNIL [T11E],2.83
13,KEHVPTWLQNFHVYSWPKNKKNIL [T11F],2.53
14,KEHVPTWLQNIHVYSWPKNKKNIL [T11I],2.55
15,KEHVPTWLQNLHVYSWPKNKKNIL [T11L],2.44
16,KEHVPTWLQNAHVYSWPKNKKNIL [T11A],2.67
17,KEHVPTWLQNMHVYSWPKNKKNIL [T11M],2.91
18,KEHVPTWLQNYHVYSWPKNKKNIL [T11Y],2.36
19,KEHVPTWLQNCHVYSWPKNKKNIL [T11C],2.28
20,KEHVPTWYQNTHVYSWPKNKKNIL [L8Y],2.73
21,KEHVPTWRQNTHVYSWPKNKKNIL [L8R],2.98
22,KEHVPTWSQNTHVYSWPKNKKNIL [L8S],3.01
23,KEHVPTWEQNTHVYSWPKNKKNIL [L8E],3.88
24,KEHVPTWKQNTHVYSWPKNKKNIL [L8K],2.98

row,Variant,protein stability index
1,KEHVPTWAQNTHVYSWPKNKKNIL [L8A],3.33
2,KEHVPTWVQNTHVYSWPKNKKNIL [L8V],2.04
3,KEHVPTWCQNTHVYSWPKNKKNIL [L8C],3.02
4,KEHVPTWHQNTHVYSWPKNKKNIL [L8H],2.76
5,KEHVPTWDQNTHVYSWPKNKKNIL [L8D],3.17
6,KEHVPTWWQNTHVYSWPKNKKNIL [L8W],2.63
7,KEHVPTWQQNTHVYSWPKNKKNIL [L8Q],3.08
8,KEHVPTWMQNTHVYSWPKNKKNIL [L8M],3.34
9,KEHVPTWNQNTHVYSWPKNKKNIL [L8N],3.2
10,KEHVPTWGQNTHVYSWPKNKKNIL [L8G],3.21
11,KEHVPTWTQNTHVYSWPKNKKNIL [L8T],3.45
12,KEHVPTWFQNTHVYSWPKNKKNIL [L8F],2.2
13,KEHVPTWIQNTHVYSWPKNKKNIL [L8I],2.54
14,KEHVPTWPQNTHVYSWPKNKKNIL [L8P],3.18
15,KEHVPTWLQETHVYSWPKNKKNIL [N10E],2.66
16,KEHVPTWLQGTHVYSWPKNKKNIL [N10G],2.07
17,KEHVPTWLQWTHVYSWPKNKKNIL [N10W],1.64
18,KEHVPTWLQMTHVYSWPKNKKNIL [N10M],2.25
19,KEHVPTWLQPTHVYSWPKNKKNIL [N10P],2.64
20,KEHVPTWLQTTHVYSWPKNKKNIL [N10T],2.85
21,KEHVPTWLQITHVYSWPKNKKNIL [N10I],1.79
22,KEHVPTWLQFTHVYSWPKNKKNIL [N10F],2.09
23,KEHVPTWLQRTHVYSWPKNKKNIL [N10R],2.09
24,KEHVPTWLQHTHVYSWPKNKKNIL [N10H],2.48

row,Variant,protein stability index
1,KEHVPTWLQVTHVYSWPKNKKNIL [N10V],2.85
2,KEHVPTWLQKTHVYSWPKNKKNIL [N10K],2.04
3,KEHVPTWLQCTHVYSWPKNKKNIL [N10C],2.07
4,KEHVPTWLQQTHVYSWPKNKKNIL [N10Q],2.32
5,KEHVPTWLQLTHVYSWPKNKKNIL [N10L],2.03
6,KEHVPTWLQYTHVYSWPKNKKNIL [N10Y],2.6
7,KEHVPTWLQATHVYSWPKNKKNIL [N10A],2.34
8,KEHVPTWLQDTHVYSWPKNKKNIL [N10D],3.02
9,KEHVPTWLQSTHVYSWPKNKKNIL [N10S],2.66
10,KEGVPTWLQNTHVYSWPKNKKNIL [H3G],3.19
11,KESVPTWLQNTHVYSWPKNKKNIL [H3S],2.58
12,KECVPTWLQNTHVYSWPKNKKNIL [H3C],2.42
13,KELVPTWLQNTHVYSWPKNKKNIL [H3L],2.6
14,KEVVPTWLQNTHVYSWPKNKKNIL [H3V],2.69
15,KEDVPTWLQNTHVYSWPKNKKNIL [H3D],2.85
16,KERVPTWLQNTHVYSWPKNKKNIL [H3R],2.21
17,KEKVPTWLQNTHVYSWPKNKKNIL [H3K],2.83
18,KEMVPTWLQNTHVYSWPKNKKNIL [H3M],2.46
19,KEAVPTWLQNTHVYSWPKNKKNIL [H3A],2.54
20,KENVPTWLQNTHVYSWPKNKKNIL [H3N],3.17
21,KEIVPTWLQNTHVYSWPKNKKNIL [H3I],2.53
22,KEPVPTWLQNTHVYSWPKNKKNIL [H3P],3.67
23,KEQVPTWLQNTHVYSWPKNKKNIL [H3Q],2.62
24,KEEVPTWLQNTHVYSWPKNKKNIL [H3E],2.51

row,Variant,protein stability index
1,KEFVPTWLQNTHVYSWPKNKKNIL [H3F],2.16
2,KEWVPTWLQNTHVYSWPKNKKNIL [H3W],2.02
3,KETVPTWLQNTHVYSWPKNKKNIL [H3T],2.72
4,KEYVPTWLQNTHVYSWPKNKKNIL [H3Y],2.03
5,KEHKPTWLQNTHVYSWPKNKKNIL [V4K],2.43
6,KEHPPTWLQNTHVYSWPKNKKNIL [V4P],2.85
7,KEHMPTWLQNTHVYSWPKNKKNIL [V4M],2.35
8,KEHSPTWLQNTHVYSWPKNKKNIL [V4S],2.77
9,KEHNPTWLQNTHVYSWPKNKKNIL [V4N],3.44
10,KEHFPTWLQNTHVYSWPKNKKNIL [V4F],2.07
11,KEHAPTWLQNTHVYSWPKNKKNIL [V4A],2.39
12,KEHHPTWLQNTHVYSWPKNKKNIL [V4H],2.25
13,KEHIPTWLQNTHVYSWPKNKKNIL [V4I],1.74
14,KEHRPTWLQNTHVYSWPKNKKNIL [V4R],2.69
15,KEHCPTWLQNTHVYSWPKNKKNIL [V4C],1.87
16,KEHEPTWLQNTHVYSWPKNKKNIL [V4E],3.23
17,KEHLPTWLQNTHVYSWPKNKKNIL [V4L],3.21
18,KEHGPTWLQNTHVYSWPKNKKNIL [V4G],2.81
19,KEHTPTWLQNTHVYSWPKNKKNIL [V4T],3.87
20,KEHWPTWLQNTHVYSWPKNKKNIL [V4W],1.93
21,KEHYPTWLQNTHVYSWPKNKKNIL [V4Y],2.27
22,KEHQPTWLQNTHVYSWPKNKKNIL [V4Q],3.54
